Experiments:
recombinant human IL-18 [1] = target: T1, recombinant human IL-18 (human, UniProt Q14116 37-193); assay: cell-based or functional assay
T1 sequence (looked up): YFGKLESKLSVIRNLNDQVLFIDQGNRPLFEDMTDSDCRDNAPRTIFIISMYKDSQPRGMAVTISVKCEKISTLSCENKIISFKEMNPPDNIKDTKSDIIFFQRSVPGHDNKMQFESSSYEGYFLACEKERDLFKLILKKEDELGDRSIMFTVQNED

recombinant human IL-18 [2] = target: T1, recombinant human IL-18; assay: printed in the IC50 (M) column of Table 2 (HEK293/NFkB-luciferase hIL-18 inhibition bioassay, CHO transient supernatant)
Source text: hIL-18 Inhibition. The HEK293/NFkB-luciferase bioassay is used to determine the ability of the IL-18-specific polypeptides of the invention to block the activity of human IL-18 (hIL-18). Human embryonic kidney 293, HEK293, cells, were transfected with an NFκB-luciferase reporter plasmid. By placing an NFκB promoter element upstream of the luciferase gene one can monitor NFκB activity in cells. Because IL-18 signaling is mediated by NFκB, when cells containing the 293/NFκB luciferase construct and the IL-18 receptors are stimulated with hIL-18, the luciferase gene is expressed and luciferase activity can be detected in cell lysates. A stable, transfected, cell line, HEK293/D9, was selected for good response to IL-1 as detected by luciferase activity. This line was transfected with the human IL-18Rα (IL-IRrp) and IL-18Rβ (IL1RAcPL) receptors and stable cell lines that responded to IL-18 with a strong luciferase signal were isolated. These cells are called hIL-18-NFκB-luciferase cells.
For the assay, hIL-18-NFκB-Luciferase cells were suspended at 1.25×10⁵ cells per ml in medium and 0.08 ml of cells plated (10,000 cells per well) into the wells of a 96 well tissue culture plate. […] Plates were incubated at room temperature for ˜10 minutes and then read on a Victor multilabel counter (Luminescence 1 sec/well).

Row | Binder | IC50 (M), HEK293/NFkB-luciferase bioassay (recombinant human IL-18 [1]) [M] | binding result (recombinant human IL-18 [2])
1 | hIL18BPa (1-192) (C49S, C129S).His (receptor) TPVSQTTTAATASVRSTKDPSPSQPPVFPAAKQCPALEVTWPEVEVPLNGTLSLSCVACSRFPNFSILYWLGNGSFIEHLPGRLWEGSTSRERGSTGTQLSKALVLEQLTPALHSTNFSCVLVDPEQVVQRHVVLAQLWAGLRATLPPTQEALPSSHSSPQQQGTGHHHHHHHH | 8.59e-11 | 
2 | hIL18BPa (1-181) (C49S, C129S).His (receptor) TPVSQTTTAATASVRSTKDPSPSQPPVFPAAKQCPALEVTWPEVEVPLNGTLSLSCVACSRFPNFSILYWLGNGSFIEHLPGRLWEGSTSRERGSTGTQLSKALVLEQLTPALHSTNFSCVLVDPEQVVQRHVVLAQLWAGLRATLPPTQEALTGHHHHHHHH | 1.23e-10 | 
3 | hIL18BPa (72-192).TG.hFc (Fc fusion, not shown: hFc (human Fc)) VEVPLNGTLSLSCVACSRFPNFSILYWLGNGSFIEHLPGRLWEGSTSRERGSTGTQLCKALVLEQLTPALHSTNFSCVLVDPEQVVQRHVVLAQLWAGLRATLPPTQEALPSSHSSPQQQGTG |  | no binding
4 | hIL18BPa (58-192) (C129S).His (receptor) AAKQCPALEVTWPEVEVPLNGTLSLSCVACSRFPNFSILYWLGNGSFIEHLPGRLWEGSTSRERGSTGTQLSKALVLEQLTPALHSTNFSCVLVDPEQVVQRHVVLAQLWAGLRATLPPTQEALPSSHSSPQQQGHHHHHHHH | 3.9e-11 | 

From patent US20050221433A1 (Regeneron, published 2005)
